Source: the supplement of paper PMC10126150
± gives the standard deviation of the averaged measurements.

Test system: ATP
Assay: switch fluorescence ratio, 500 uM ATP over buffer (Cy3 cluster intensity, sum of 5 cycles each) (fold (ratio)); higher = stronger signal-on switching upon ATP binding; sequences stand for … in TCGTCGGCAGCGTCAGATGTGTATAAGAGACAGTTTTTTTTTTTTTTTTTTTTTTTTT…TC
Conditions: aptamer strand: ATP DNA aptamer (quencher-CACCTGGGGGAGTATTGCGGAGGAAGG + anchor), 100 nM annealed; ATP concentration: 500 uM
In short: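 For every switch-domain sequence, the fluorescence ratio is the mean of per-cluster values, each being summed target-cycle Cy3 intensity over summed buffer-cycle Cy3 intensity. Clusters outside 100-1000 RFU were excluded. On a modified Illumina MiSeq flow-cell, the Cy3-labelled switching-strand clusters were annealed to 100 nM quencher-labelled ATP aptamer, imaged in selection buffer and then after 15 min with 500 uM ATP at 22 °C. Five such cycles were run, with NaOH stripping and re-annealing between them.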
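Also: ATP exposure 15 min at 22 °C before imaging.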

TGCCCGGGGG
switch fluorescence ratio: 1.24 ± 0.26

TGCCCGTACG
switch fluorescence ratio: 1 ± 0.033

TGCCGACGTA
switch fluorescence ratio: 1.03 ± 0.017

TGCCGGCGCT
switch fluorescence ratio: 0.989 ± 0.038

TGCCGGGGAC
switch fluorescence ratio: 1.04 ± 0.034

TGCCGGGGGA
switch fluorescence ratio: 1.01 ± 0.018

TGCCGGGGGG
switch fluorescence ratio: 0.99 ± 0.011

TGCCGTTTTC
switch fluorescence ratio: 1.04 ± 0.011

TGCCTAAAGT
switch fluorescence ratio: 0.976 ± 0.016

TGCCTAAATA
switch fluorescence ratio: 1 ± 0.031

TGCCTGCGGA
switch fluorescence ratio: 1.001 ± 0.005

TGCCTTGAGA
switch fluorescence ratio: 1 ± 0.015

TGCGAAGGAG
switch fluorescence ratio: 0.9794 ± 0.0063

TGCGAATGAG
switch fluorescence ratio: 0.993 ± 0.0049

TGCGACAGTT
switch fluorescence ratio: 1.006 ± 0.0029

TGCGACGATG
switch fluorescence ratio: 1.03 ± 0.027

TGCGACTGG
switch fluorescence ratio: 0.9979 ± 0.0067

TGCGATGTAG
switch fluorescence ratio: 0.9889 ± 0.005

TGCGATTAAG
switch fluorescence ratio: 1 ± 0.047

TGCGATTCG
switch fluorescence ratio: 0.9931 ± 0.0076

TGCGATTGGT
switch fluorescence ratio: 1.01 ± 0.012

TGCGCAACTT
switch fluorescence ratio: 1.0306 ± 0.001

TGCGCATAGA
switch fluorescence ratio: 1.02 ± 0.018

TGCGGAGAAT
switch fluorescence ratio: 1.028 ± 0.0026

TGCGGCAATT
switch fluorescence ratio: 1.09 ± 0.012

TGCGGCGCTT
switch fluorescence ratio: 1.97 ± 1.3

TGCGGGAGTG
switch fluorescence ratio: 0.965 ± 0.023

TGCGGGGAAT
switch fluorescence ratio: 0.9707 ± 0.0068

TGCGGGGGCT
switch fluorescence ratio: 1.002 ± 0.0025

TGCGGGGGGC
switch fluorescence ratio: 0.991 ± 0.012

TGCGGGGTTA
switch fluorescence ratio: 0.986 ± 0.024

TGCGGGTAGG
switch fluorescence ratio: 1.03 ± 0.012

TGCGGTGGGG
switch fluorescence ratio: 0.976 ± 0.013

TGCGGTTAGC
switch fluorescence ratio: 1.004 ± 0.006

TGCGTAAGGC
switch fluorescence ratio: 1.18 ± 0.025

TGCGTAGTGC
switch fluorescence ratio: 1.09 ± 0.036

TGCGTATATG
switch fluorescence ratio: 1.005 ± 0.0085

TGCGTGGCGG
switch fluorescence ratio: 1.02 ± 0.037

TGCGTGTGGG
switch fluorescence ratio: 1.0208 ± 0.001

TGCGTGTTTT
switch fluorescence ratio: 1.03 ± 0.015

TGCGTTAT
switch fluorescence ratio: 1.07 ± 0.036

TGCGTTCGTC
switch fluorescence ratio: 0.993 ± 0.015

TGCTAATCTG
switch fluorescence ratio: 0.958 ± 0.025

TGCTACGGCG
switch fluorescence ratio: 1.02 ± 0.019

TGCTAGCCTC
switch fluorescence ratio: 0.9724 ± 0.004

TGCTAGGGGG
switch fluorescence ratio: 0.989 ± 0.02

TGCTAGGGGT
switch fluorescence ratio: 1.41 ± 0.051

TGCTATACTT
switch fluorescence ratio: 1.46 ± 0.15

TGCTATTATG
switch fluorescence ratio: 0.988 ± 0.048

TGCTCATTCG
switch fluorescence ratio: 1.01 ± 0.024

TGCTCCAAGT
switch fluorescence ratio: 1.03 ± 0.013

TGCTCCTTTT
switch fluorescence ratio: 1 ± 0.034

TGCTCGGATG
switch fluorescence ratio: 0.993 ± 0.03

TGCTCGGGAC
switch fluorescence ratio: 1.09 ± 0.047

TGCTCTACCT
switch fluorescence ratio: 1.18 ± 0.057

TGCTCTGCGT
switch fluorescence ratio: 1.17 ± 0.012

TGCTGAATCT
switch fluorescence ratio: 0.996 ± 0.046

TGCTGACCGA
switch fluorescence ratio: 1.04 ± 0.035

TGCTGCGGCT
switch fluorescence ratio: 1.01 ± 0.019

TGCTGCTAGC
switch fluorescence ratio: 0.985 ± 0.036

TGCTGGAGGG
switch fluorescence ratio: 0.955 ± 0.011

TGCTGGATGA
switch fluorescence ratio: 1 ± 0.047

TGCTGGCGCG
switch fluorescence ratio: 1 ± 0.033

TGCTGGGCC
switch fluorescence ratio: 1.02 ± 0.083

TGCTGGGGCG
switch fluorescence ratio: 0.9876 ± 0.0022

TGCTGGGGGT
switch fluorescence ratio: 1.03 ± 0.068

TGCTGGGGTG
switch fluorescence ratio: 1.04 ± 0.1

TGCTTAAGAT
switch fluorescence ratio: 0.99 ± 0.023

TGCTTATCTG
switch fluorescence ratio: 0.99 ± 0.032

TGCTTATTTT
switch fluorescence ratio: 1.01 ± 0.065

TGCTTCTGAA
switch fluorescence ratio: 0.9635 ± 0.0092

TGCTTCTTTG
switch fluorescence ratio: 0.979 ± 0.011

TGCTTGGGTA
switch fluorescence ratio: 1.01 ± 0.021

TGCTTTAAAC
switch fluorescence ratio: 0.995 ± 0.032

TGCTTTTTGG
switch fluorescence ratio: 1.01 ± 0.032

TGGAAAAAAG
switch fluorescence ratio: 0.9901 ± 0.0015

TGGAAAAAG
switch fluorescence ratio: 0.989 ± 0.053

TGGAAAACTT
switch fluorescence ratio: 1.11 ± 0.16

TGGAACAGGG
switch fluorescence ratio: 1.03 ± 0.036

TGGAACTTTT
switch fluorescence ratio: 0.974 ± 0.021

TGGAAGCCGG
switch fluorescence ratio: 0.957 ± 0.037

TGGAAGGAAG
switch fluorescence ratio: 0.9998 ± 0.0073

TGGAAGGGTT
switch fluorescence ratio: 0.994 ± 0.028

TGGAAGTGAG
switch fluorescence ratio: 0.969 ± 0.055

TGGAAGTTAG
switch fluorescence ratio: 0.964 ± 0.029

TGGAATGGAT
switch fluorescence ratio: 1.01 ± 0.043

TGGAATTTTT
switch fluorescence ratio: 0.987 ± 0.03

TGGACCATTT
switch fluorescence ratio: 1.01 ± 0.0021

TGGACCGGGG
switch fluorescence ratio: 1.016 ± 0.0034

TGGACGCGGG
switch fluorescence ratio: 1.03 ± 0.016

TGGACGGGGA
switch fluorescence ratio: 1.03 ± 0.031

TGGACGTTGA
switch fluorescence ratio: 0.994 ± 0.033

TGGACTTATA
switch fluorescence ratio: 1.02 ± 0.012

TGGACTTGGA
switch fluorescence ratio: 0.9869 ± 0.0031

TGGAGATTGG
switch fluorescence ratio: 0.969 ± 0.023

TGGAGCCCCG
switch fluorescence ratio: 0.999 ± 0.015

TGGAGCGCCG
switch fluorescence ratio: 1.01 ± 0.028

TGGAGCTCTG
switch fluorescence ratio: 0.981 ± 0.027

TGGAGGCTTT
switch fluorescence ratio: 1.009 ± 0.0073

TGGAGGGAGG
switch fluorescence ratio: 1.01 ± 0.023

TGGAGGGGAT
switch fluorescence ratio: 1.02 ± 0.075

TGGAGGGGGC
switch fluorescence ratio: 1.01 ± 0.046

TGGAGGGTCG
switch fluorescence ratio: 1.021 ± 0.0023

TGGAGTACGG
switch fluorescence ratio: 1.008 ± 0.0036

TGGAGTTACT
switch fluorescence ratio: 0.994 ± 0.061

TGGAGTTAGA
switch fluorescence ratio: 0.996 ± 0.035

TGGATAAGGT
switch fluorescence ratio: 1.05 ± 0.13

TGGATAAGTT
switch fluorescence ratio: 1.03 ± 0.025

TGGATAGGGT
switch fluorescence ratio: 0.961 ± 0.037

TGGATATGAT
switch fluorescence ratio: 0.998 ± 0.0028

TGGATATGGT
switch fluorescence ratio: 1.01 ± 0.013

TGGATCATAA
switch fluorescence ratio: 0.973 ± 0.068

TGGATCATGG
switch fluorescence ratio: 0.9753 ± 0.009

TGGATCTTCG
switch fluorescence ratio: 0.9903 ± 0.0077

TGGATGCGGG
switch fluorescence ratio: 1.02 ± 0.032

TGGATGGAGA
switch fluorescence ratio: 1.006 ± 0.008

TGGATGGCC
switch fluorescence ratio: 1.02 ± 0.032

TGGATGGCCC
switch fluorescence ratio: 1.02 ± 0.016

TGGATGGGGG
switch fluorescence ratio: 0.992 ± 0.022

TGGATGTCGT
switch fluorescence ratio: 1.008 ± 0.0094

TGGATGTGAT
switch fluorescence ratio: 1.03 ± 0.049

TGGATGTGGG
switch fluorescence ratio: 1.03 ± 0.031

TGGATGTTTG
switch fluorescence ratio: 1.02 ± 0.018

TGGATTAGAG
switch fluorescence ratio: 0.9672 ± 0.0022

TGGATTAGGT
switch fluorescence ratio: 1.01 ± 0.021

TGGATTATAG
switch fluorescence ratio: 1.02 ± 0.033

TGGATTTGGA
switch fluorescence ratio: 0.999 ± 0.02

TGGATTTGGT
switch fluorescence ratio: 0.988 ± 0.012

TGGATTTTGG
switch fluorescence ratio: 0.98 ± 0.021

TGGCAATTAG
switch fluorescence ratio: 1.1 ± 0.074

TGGCACCTTT
switch fluorescence ratio: 1.11 ± 0.036

TGGCACGGGC
switch fluorescence ratio: 1.02 ± 0.047

TGGCAGAGGC
switch fluorescence ratio: 1.04 ± 0.038

TGGCAGTCGG
switch fluorescence ratio: 0.978 ± 0.019

TGGCATTTTT
switch fluorescence ratio: 0.991 ± 0.025

TGGCCACTT
switch fluorescence ratio: 0.986 ± 0.023

TGGCCGGGCA
switch fluorescence ratio: 2.13 ± 1.6

TGGCGAAGGT
switch fluorescence ratio: 0.9747 ± 0.0085

TGGCGCTTTT
switch fluorescence ratio: 0.9976 ± 0.0079

TGGCGGCTGG
switch fluorescence ratio: 0.996 ± 0.018

TGGCGGGGCA
switch fluorescence ratio: 0.998 ± 0.035

TGGCGGTGGC
switch fluorescence ratio: 0.9806 ± 0.006

TGGCGTAGGT
switch fluorescence ratio: 1.005 ± 0.0083

TGGCGTAGTT
switch fluorescence ratio: 0.991 ± 0.037

TGGCGTGTCA
switch fluorescence ratio: 1.02 ± 0.051

TGGCGTTTAC
switch fluorescence ratio: 1.46 ± 0.64

TGGCGTTTTG
switch fluorescence ratio: 0.9687 ± 0.0069

TGGCTCAGGC
switch fluorescence ratio: 1 ± 0.025

TGGCTCTCAT
switch fluorescence ratio: 1.02 ± 0.017

TGGCTGTTGA
switch fluorescence ratio: 1.01 ± 0.018

TGGCTTTGGT
switch fluorescence ratio: 0.9862 ± 0.0046

TGGCTTTTAC
switch fluorescence ratio: 1.09 ± 0.056

TGGGAAAAGA
switch fluorescence ratio: 0.983 ± 0.017

TGGGAAACGT
switch fluorescence ratio: 1.09 ± 0.027

TGGGAAAGAA
switch fluorescence ratio: 1.04 ± 0.068

TGGGAAAGGA
switch fluorescence ratio: 1.01 ± 0.051

TGGGAAAGGT
switch fluorescence ratio: 0.994 ± 0.025

TGGGAAATCA
switch fluorescence ratio: 0.993 ± 0.048

TGGGAAATGT
switch fluorescence ratio: 1.1 ± 0.23

TGGGAAATTA
switch fluorescence ratio: 0.999 ± 0.024

TGGGAAGGAT
switch fluorescence ratio: 1.006 ± 0.0016

TGGGAAGGGC
switch fluorescence ratio: 1.02 ± 0.03

TGGGACACTG
switch fluorescence ratio: 0.972 ± 0.035

TGGGACCCCC
switch fluorescence ratio: 1.34 ± 0.47

TGGGACGTGG
switch fluorescence ratio: 0.9812 ± 0.0086

TGGGAGAAAA
switch fluorescence ratio: 1.0069 ± 0.00087

TGGGAGAAAT
switch fluorescence ratio: 2.39 ± 2.4

TGGGAGACGG
switch fluorescence ratio: 1.2 ± 0.38

TGGGAGATGT
switch fluorescence ratio: 0.993 ± 0.015

TGGGAGGACG
switch fluorescence ratio: 0.97 ± 0.038

TGGGAGGCGT
switch fluorescence ratio: 0.992 ± 0.02

TGGGAGGGAG
switch fluorescence ratio: 0.987 ± 0.028

TGGGAGGGTG
switch fluorescence ratio: 1.02 ± 0.067

TGGGAGTTCC
switch fluorescence ratio: 1.04 ± 0.036

TGGGATAAGT
switch fluorescence ratio: 1.01 ± 0.018

TGGGATATAG
switch fluorescence ratio: 0.994 ± 0.022

TGGGATATTA
switch fluorescence ratio: 0.9995 ± 0.007

TGGGATCAAG
switch fluorescence ratio: 1 ± 0.032

TGGGATGGGG
switch fluorescence ratio: 1.01 ± 0.037

TGGGATTCGG
switch fluorescence ratio: 1.03 ± 0.092

TGGGATTTAG
switch fluorescence ratio: 1 ± 0.044

TGGGATTTTC
switch fluorescence ratio: 1.03 ± 0.067

TGGGCAATTT
switch fluorescence ratio: 1.09 ± 0.036

TGGGCAGAGG
switch fluorescence ratio: 1.01 ± 0.024

TGGGCAGGAC
switch fluorescence ratio: 1.41 ± 0.49

TGGGCAGGGA
switch fluorescence ratio: 0.9817 ± 0.0024

TGGGCATATA
switch fluorescence ratio: 0.996 ± 0.012

TGGGCCAAGC
switch fluorescence ratio: 0.995 ± 0.025

TGGGCCCGGC
switch fluorescence ratio: 1.02 ± 0.053

TGGGCGAATC
switch fluorescence ratio: 0.998 ± 0.014

TGGGCGGGA
switch fluorescence ratio: 1 ± 0.03

TGGGCTATTT
switch fluorescence ratio: 0.964 ± 0.017

TGGGCTCTGT
switch fluorescence ratio: 0.978 ± 0.044

TGGGCTTCGG
switch fluorescence ratio: 0.9689 ± 0.0093

TGGGCTTGTT
switch fluorescence ratio: 0.999 ± 0.036

TGGGGAACGG
switch fluorescence ratio: 0.981 ± 0.031

TGGGGAAGGT
switch fluorescence ratio: 0.994 ± 0.022

TGGGGAATCT
switch fluorescence ratio: 1.02 ± 0.016

TGGGGAGAGC
switch fluorescence ratio: 0.992 ± 0.019

TGGGGAGGTT
switch fluorescence ratio: 0.97 ± 0.044
